Source: publication PMC9000958, “Sticks and Stones, a conserved cell surface ligand for the Type IIa RPTP Lar, regulates neural circuit wiring in Drosophila” (eLife, 2022)

Experiments:
[1] = biological target: Sticks and Stones (Sns), ectopically expressed in Tub>Sns embryos (Drosophila); test: immunostaining of cells or tissue; live-dissected stage 16 embryos (WT or Tub-GAL4 overexpression) incubated 2 hr at room temperature with AP or AP5 fusion protein supernatants (1x or concentrated), fixed in 4% paraformaldehyde, detected with anti-AP antibody; staining intensity compared with WT embryos
[2] = biological target: Nephrin or Sns (expressed in Tub>NPHS1 or Tub>Sns embryos); test: as above
[3] = biological target: Lar, ectopically expressed in Tub>Lar embryos (Drosophila) (UniProt P16621); test: as above
[4] = biological target: Lar-Fc fusion protein (Drosophila) (UniProt P16621); test: ELISA; ECIA: Fc fusion bait (1x supernatant) captured by anti-human IgG (Fc-specific) on plate; AP5 fusion prey (1x supernatant) pre-clustered with anti-AP:biotin, overnight at room temperature; streptavidin:HRP, TMB, absorbance at 450 nm
[5] = biological target: T1, human Nephrin, ectopically expressed in Tub>NPHS1 embryos (human, UniProt O60500 23-1241); test: immunostaining of cells or tissue; live-dissected stage 16 embryos (WT or Tub-GAL4 overexpression) incubated 2 hr at room temperature with AP or AP5 fusion protein supernatants (1x or concentrated), fixed in 4% paraformaldehyde, detected with anti-AP antibody; staining intensity compared with WT embryos; details: partners not purified
T1 construct: source: Drosophila embryos, UAS-linked full-length human Nephrin cDNA driven by Tub-GAL4, live-dissected stage 16
T1 sequence (looked up): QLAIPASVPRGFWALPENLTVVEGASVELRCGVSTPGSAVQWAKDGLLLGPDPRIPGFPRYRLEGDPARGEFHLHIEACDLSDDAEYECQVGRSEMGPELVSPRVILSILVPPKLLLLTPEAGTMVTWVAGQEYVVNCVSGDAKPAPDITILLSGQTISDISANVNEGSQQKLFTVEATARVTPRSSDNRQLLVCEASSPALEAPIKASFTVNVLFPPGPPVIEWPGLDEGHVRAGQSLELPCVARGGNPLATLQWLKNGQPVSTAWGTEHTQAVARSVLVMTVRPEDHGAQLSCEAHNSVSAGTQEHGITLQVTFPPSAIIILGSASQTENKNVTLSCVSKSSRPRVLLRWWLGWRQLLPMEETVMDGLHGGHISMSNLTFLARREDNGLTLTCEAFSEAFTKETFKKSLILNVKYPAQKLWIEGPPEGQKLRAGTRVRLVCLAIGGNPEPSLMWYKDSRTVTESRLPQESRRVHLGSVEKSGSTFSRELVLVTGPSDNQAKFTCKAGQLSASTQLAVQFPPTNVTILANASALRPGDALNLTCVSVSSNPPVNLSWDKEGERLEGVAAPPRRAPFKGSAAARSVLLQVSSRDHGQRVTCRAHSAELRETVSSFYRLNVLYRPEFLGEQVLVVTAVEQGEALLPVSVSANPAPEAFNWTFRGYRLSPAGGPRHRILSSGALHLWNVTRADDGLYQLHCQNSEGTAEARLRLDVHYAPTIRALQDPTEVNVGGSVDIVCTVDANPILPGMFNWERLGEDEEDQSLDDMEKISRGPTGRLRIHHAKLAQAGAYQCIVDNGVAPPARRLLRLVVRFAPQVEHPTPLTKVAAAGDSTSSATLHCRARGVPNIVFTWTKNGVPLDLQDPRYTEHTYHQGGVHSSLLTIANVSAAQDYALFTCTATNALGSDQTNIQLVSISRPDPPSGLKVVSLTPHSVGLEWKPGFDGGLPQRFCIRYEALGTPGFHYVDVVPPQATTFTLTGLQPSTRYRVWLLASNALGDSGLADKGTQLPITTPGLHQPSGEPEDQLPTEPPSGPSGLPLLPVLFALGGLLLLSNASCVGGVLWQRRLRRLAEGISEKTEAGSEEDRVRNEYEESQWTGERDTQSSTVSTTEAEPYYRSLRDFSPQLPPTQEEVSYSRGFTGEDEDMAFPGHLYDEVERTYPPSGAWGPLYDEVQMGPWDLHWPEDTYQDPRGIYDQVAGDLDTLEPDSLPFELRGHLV

[6] = biological target: Sns-AP5 fusion protein (Drosophila); test: ELISA; ECIA with mi3 particles: AP5 bait (10 ng/ul) on streptavidin-coated plate; mi3 particles or Fc fusion proteins as prey at 10 ng/ul or 1x, overnight at room temperature; detected with anti-LAR or anti-human IgG (Fc) and anti-mouse:AP, BluePhos, absorbance at 650 nm; mi3 preys were purified, purification of bait not told

For “Lar^HS2-alkaline phosphatase fusion protein (from UniProt P16621 33-1377) (domain or fragment)”, the fold increase in staining vs. WT embryos [1] was > 10 fold.

“PTPRF-AP5 fusion protein (from UniProt P10586 30-1263) (domain or fragment)” was tested, and the fold increase in staining vs. WT embryos [2] was 18 to 20 fold.

In the case of “Sns-AP5 fusion protein (domain or fragment)”, the fold increase in staining vs. WT embryos [3] is reported as 3 fold and the fold higher binding signal [4] is reported as 3 fold.

B1: PTPRD-AP5 fusion protein (domain or fragment, human, UniProt P23468 21-1265, looked up)
chain: ETPPRFTRTPVDQTGVSGGVASFICQATGDPRPKIVWNKKGKKVSNQRFEVIEFDDGSGSVLRIQPLRTPRDEAIYECVASNNVGEISVSTRLTVLREDQIPRGFPTIDMGPQLKVVERTRTATMLCAASGNPDPEITWFKDFLPVDTSNNNGRIKQLRSESIGGTPIRGALQIEQSEESDQGKYECVATNSAGTRYSAPANLYVRELREVRRVPPRFSIPPTNHEIMPGGSVNITCVAVGSPMPYVKWMLGAEDLTPEDDMPIGRNVLELNDVRQSANYTCVAMSTLGVIEAIAQITVKALPKPPGTPVVTESTATSITLTWDSGNPEPVSYYIIQHKPKNSEELYKEIDGVATTRYSVAGLSPYSDYEFRVVAVNNIGRGPPSEPVLTQTSEQAPSSAPRDVQARMLSSTTILVQWKEPEEPNGQIQGYRVYYTMDPTQHVNNWMKHNVADSQITTIGNLVPQKTYSVKVLAFTSIGDGPLSSDIQVITQTGVPGQPLNFKAEPESETSILLSWTPPRSDTIANYELVYKDGEHGEEQRITIEPGTSYRLQGLKPNSLYYFRLAARSPQGLGASTAEISARTMQSKPSAPPQDISCTSPSSTSILVSWQPPPVEKQNGIITEYSIKYTAVDGEDDKPHEILGIPSDTTKYLLEQLEKWTEYRITVTAHTDVGPGPESLSVLIRTNEDVPSGPPRKVEVEAVNSTSVKVSWRSPVPNKQHGQIRGYQVHYVRMENGEPKGQPMLKDVMLADAQWEFDDTTEHDMIISGLQPETSYSLTVTAYTTKGDGARSKPKLVSTTGAVPGKPRLVINHTQMNTALIQWHPPVDTFGPLQGYRLKFGRKDMEPLTTLEFSEKEDHFTATDIHKGASYVFRLSARNKVGFGEEMVKEISIPEEVPTGFPQNLHSEGTTSTSVQLSWQPPVLAERNGIITKYTLLYRDINIPLLPMEQLIVPADTTMTLTGLKPDTTYDVKVRAHTSKGPGPYSPSVQFRTLPVDQVFAKNFHVKAVMKTSVLLSWEIPENYNSAMPFKILYDDGKMVEEVDGRATQKLIVNLKPEKSYSFVLTNRGNSAGGLQHRVTAKTAPDVLRTKPAFIGKTNLDGMITVQLPEVPANENIKGYYIIIVPLKKSRGKFIKPWESPDEMELDELLKEISRKRRSIRYGREVELKPYIAAHFDVLPTEFTLGDDKHYGGFTNKQLQSGQEYVFFVLAVMEHAESKMYATSPYSDPVVSMDLDPQPITDEEE
notes: human PTPRD extracellular domain, amplified from a full-length cDNA; also called PTPδ; source: Drosophila S2 cells, transfected, supernatant
B1 was tested, and the “fold increase in staining vs. WT embryos” value [5] was 3 fold.

B2: 60-mer Lar particles on the mi3 nanoparticle scaffold (Fc fusion)
chain: AHPPEIIRKPQNQGVRVGGVASFYCAARGDPPPSIVWRKNGKKVSGTQSRYTVLEQPGGISILRIEPVRAGRDDAPYECVAENGVGDAVSADATLTIYEGDKTPAGFPVITQGPGTRVIEVGHTVLMTCKAIGNPTPNIYWIKNQTKVDMSNPRYSLKDGFLQIENSREEDQGKYECVAENSMGTEHSKATNLYVKVRRVPPTFSRPPETISEVMLGSNLNLSCIAVGSPMPHVKWMKGSEDLTPENEMPIGRNVLQLINIQESANYTCIAASTLGQIDSVSVVKVQSLPTAPTDVQISEVTATSVRLEWSYKGPEDLQYYVIQYKPKNANQAFSEISGIITMYYVVRALSPYTEYEFYVIAVNNIGRGPPSAPATCTTGETKMESAPRNVQVRTLSSSTMVITWEPPETPNGQVTGYKVYYTTNSNQPEASWNSQMVDNSELTTVSELTPHAIYTVRVQAYTSMGAGPMSTPVQVKAQQGVPSQPSNFRATDIGETAVTLQWTKPTHSSENIVHYELYWNDTYANQAHHKRISNSEAYTLDGLYPDTLYYIWLAARSQRGEGATTPPIPVRTKQYVPGAPPRNITAIATSSTTISLSWLPPPVERSNGRIIYYKVFFVEVGREDDEATTMTLNMTSIVLDELKRWTEYKIWVLAGTSVGDGPRSHPIILRTQEDVPGDPQDVKATPLNSTSIHVSWKPPLEKDRNGIIRGYHIHAQELRDEGKGFLNEPFKFDVVDTLEFNVTGLQPDTKYSIQVAALTRKGDGDRSAAIVVKTPGGVPVRPTVSLKIMEREPIVSIELEWERPAQTYGELRGYRLRWGVKDQALKEEMLSGPQMTKKRFDNLERGVEYEFRVAGSNHIGIGQETVKIFQTPEGTPGGPPSNITIRFQTPDVLCVTWDPPTREHRNGIITRYDVQFHKKIDHGLGSERNMTLRKAVFTNLEENTEYIFRVRAYTKQGAGPFSDKLIVETERDMGRAPMSLQAEATSEQTAEIWWEPVTSRGKLLGYKIFYTMTAVEDLDDWQTKTVGLTESADLVNLEKFAQYAVAIAARFKNGLGRLSEKVTVRIKPEDVPLNLRAHDVSTHSMTLSWSPPIRLTPVNYKISFDAMKVFVDSQGFSQTQIVPKREIILKHYVKTHTINELSPFTTYNVNVSAIPSDYSYRPPTKITVTTQMAAPQPMVKPDFYGVVNGEEILVILPQASEEYGPISHYYLVVVPEDKSNLHKIPDQFLTDDLLPGRNKPERPNAPYIAAKFPQRSIPFTFHLGSGDDYHNFTNRKLEREKRYRIFVRAVVDTPQKHLYTSSPFSEFLSLDMREAPPGERPHRPDPNWPAEPEVSVNRNKDEPE
With B2 the fold increase in binding signal [6] was 7 fold and the fold weaker binding signal than Kirre on Sns-AP5 [6] was 2 fold.
